Measured values: patent publication US20240287172A1 (SCIRHOM, published 2024)
Changes are numbered by the printed parent chain.

Target: T1, hiR2-FL-G587N-T7 (human, UniProt Q6PJF5 1-856)
T1 sequence: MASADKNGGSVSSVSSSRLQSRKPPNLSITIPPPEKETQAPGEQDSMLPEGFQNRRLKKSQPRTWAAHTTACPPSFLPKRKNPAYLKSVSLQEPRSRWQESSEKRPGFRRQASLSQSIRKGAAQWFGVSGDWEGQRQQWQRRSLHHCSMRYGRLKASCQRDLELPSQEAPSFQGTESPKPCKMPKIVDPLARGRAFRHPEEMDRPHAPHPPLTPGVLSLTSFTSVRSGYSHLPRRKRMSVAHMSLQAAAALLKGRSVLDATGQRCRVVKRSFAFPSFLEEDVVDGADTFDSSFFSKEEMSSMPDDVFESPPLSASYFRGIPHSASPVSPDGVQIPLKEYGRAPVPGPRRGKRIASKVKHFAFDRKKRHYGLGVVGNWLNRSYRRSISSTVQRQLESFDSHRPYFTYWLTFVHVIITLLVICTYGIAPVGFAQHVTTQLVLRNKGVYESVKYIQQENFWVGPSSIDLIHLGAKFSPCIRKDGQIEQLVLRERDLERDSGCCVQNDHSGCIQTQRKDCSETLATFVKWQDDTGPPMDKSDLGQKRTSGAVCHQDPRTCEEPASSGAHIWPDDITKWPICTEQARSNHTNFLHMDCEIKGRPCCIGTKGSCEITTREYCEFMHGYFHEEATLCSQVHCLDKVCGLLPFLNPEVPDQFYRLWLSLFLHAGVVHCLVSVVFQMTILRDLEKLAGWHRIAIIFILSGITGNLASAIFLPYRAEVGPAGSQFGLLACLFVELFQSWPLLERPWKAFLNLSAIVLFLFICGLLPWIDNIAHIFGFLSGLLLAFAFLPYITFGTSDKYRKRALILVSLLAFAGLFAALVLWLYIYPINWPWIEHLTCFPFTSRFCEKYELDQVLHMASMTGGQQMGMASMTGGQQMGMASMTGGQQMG
Assay: FACS, MEF-DKO cells, 3 µg/ml
From the text: In brief, immortalized MEF-DKO hiR2-FL-G563D-T7, MEF-DKO hiR2-FL-A564P-T7, MEF-DKO hiR2-FL-1566E-T7, MEF-DKO hiR2-FL-D569E-T7, MEF-DKO hiR2-FL-E579K-T7, MEF-DKO hiR2-FL-Q580N-T7, MEF-DKO hiR2-FL-A581S-T7, MEF-DKO hiR2-FL-R582A-T7, MEF-DKO hiR2-FL-S583G-T7, MEF-DKO hiR2-FL-G587N-T7, MEF-DKO hiR2-FL-F588H-T7, MEF-DKO hiR2-FL-L589P-T7, MEF-DKO hiR2-FL-E594V-T7, MEF-DKO hiR2-FL-K596T-T7, MEF-DKO hiR2-FL-S607R-T7, MEF-DKO hiR2-FL-T612S-T7, MEF-DKO hiR2-FL-E617D-T7, MEF-DKO hiR2-FL-H620R-T7, MEF-DKO hiR2-FL-L636M-T7, MEF-DKO hiR2-FL-K638D-T7, MEF-DKO hiR2-FL-1771F-T7, MEF-DKO hiR2-FL-1825V-T7, MEF-DKO hiR2-FL-1828V-T7, MEF-DKO hiR2-FL-N829R-T7, MEF-DKO hiR2-FL-W830C-T7, MEF-DKO hiR2-FL-P831E-T7, MEF-DKO hiR2-FL-I833C-T7, MEF-DKO hiR2-FL-H835F-T7, MEF-DKO hiR2-FL-F8391-T7, MEF-DKO hiR2-FL-S843D-T7, MEF-DKO hiR2-FL-Q853A-T7, MEF-DKO hiR2-FL-V854Q-T7 and MEF-DKO hiR2-FL-R844K-T7 cells were harvested with 10 mM EDTA in PBS, washed and resuspended in FACS buffer (PBS, 3% FBS, 0.05% sodium azide), and seeded in Nunc U-bottom 96-well plates (Thermo Fisher Scientific, USA) at approximately 1×10⁵ cells per well. To pellet cells and remove supernatants, the plates were centrifuged at 1,500 rpm and 4° C. for 3 minutes. For primary staining, cells were resuspended in 100 μl per well of either FACS buffer alone (controls) or the purified antibodies 3, 5, 16, 22, 34, 42, 43, 44, 48, and 50 of the invention at 3 μg/ml in FACS buffer and incubated on ice for 1 hour. Afterwards, plates were centrifuged at 1,500 rpm and 4° C. for 3 minutes and washed twice with 200 μl per well of FACS buffer. For secondary staining, cells were spun down and resuspended in 100 μl per well of PE-conjugated goat anti-mouse IgG F(ab′)2 detection fragment (Dianova, Germany) diluted 1:100 in FACS buffer. Protected from light, the cell suspensions were incubated on ice for 1 hour. Plates were then centrifuged at 1,500 rpm and 4° C. for 3 minutes and washed three times with 200 μl per well of FACS buffer. Finally, cells were resuspended in 150 μl per well of FACS buffer and analyzed using a BD Accuri™ C6 Plus flow cytometer (Becton Dickinson, Germany).

B1: antibody 43 (antibody, V domains shown)
VH: QVALKESGPGILQPSQTLSLTCSFSGFSLSTFGMGVGWIRQSSGKGLEWLANIWWDDDKYYNPALKSRLTISKDASKNQAFLKIANVDTADTATYYCARIGNYGSNYWYFDVWGTGTTVTVSS
VL: QIVLTQSPAIMSASPGERVTMTCSANSRISYMYWYQQKPGSSPRLLIYDTSNLASGVPVRFSGSGSGTSYSLTISRMEAEDAATYNCQQWSSYPLTFGAGTKLELK
notes: mouse IgG, kappa light chain; also called clone #43; purified antibody 43
  loss of binding vs wild type: ≥ 30%

B2: antibody 48 (antibody, V domains shown)
VH: QVQLQQSGTELVRPGTSVKVSCKASGYAFTNYLIEWVKQRPGQGLEWIGVINPGSGFTKYNEKFKGKATLTADKSSSTVYMHLSSLTSEDSAVYFCARGLYRAMDYWGQGTSVTVSS
VL: DIQMTQSPASQSASLGESVTITCLASQTIATWLAWYQQKPGKSPQLLIYGATTLADGVPSRFSGGGSGTKFSFKISSLQAEDFVSYYCQQLYSTPYTFGGGTKLEIK
notes: mouse IgG, kappa light chain; also called clone #48; purified antibody 48
  loss of binding vs wild type: ≥ 60%

B3: antibody 50 (antibody, V domains shown)
VH: B2 VH with T9A, T16A, T30S, V79A, H82Q
VL: B2 VL with A30G, G50A, T52A, T53S, S85N, L91I
notes: mouse IgG, kappa light chain; also called clone #50; purified antibody 50
  loss of binding vs wild type: ≥ 60%
